Data: publication PMC9034101

Biological target: Cy5 N-terminal-labeled WWP2 (human) (UniProt O00308)
Experiment: MST; 10 nM N-terminal Cy5-labeled WWP2, NDP52 (up to 48 uM) or OPTN (up to 60 uM) in two-fold serial dilution; 25 mM Hepes pH 7.8, 250 mM NaCl, 1 mM TCEP, 0.5 mg/ml BSA, 0.05% Tween-20; room temperature; apparent KD, quadratic model

Kd: 19 µM
B1: NDP52 (natural protein)
chain: MEETIKDPPTSAVLLDHCHFSQVIFNSVEKFYIPGGDVTCHYTFTQHFIPRRKDWIGIFRVGWKTTREYYTFMWVTLPIDLNNKSAKQQEVQFKAYYLPKDDEYYQFCYVDEDGVVRGASIPFQFRPENEEDILVVTTQGEVEEIEQHNKELCKENQELKDSCISLQKQNSDMQAELQKKQEELETLQSINKKLELKVKEQKDYWETELLQLKEQNQKMSSENEKMGIRVDQLQAQLSTQEKEMEKLVQGDQDKTEQLEQLKKENDHLFLSLTEQRKDQKKLEQTVEQMKQNETTAMKKQQELMDENFDLSKRLSENEIICNALQRQKERLEGENDLLKRENSRLLSYMGLDFNSLPYQVPTSDEGGARQNPGLAYGNPYSGIQESSSPSPLSIKKCPICKADDICDHTLEQQQMQPLCFNCPICDKIFPATEKQIFEDHVFCHSL
